We go through five molecules from patent US20220378887A1 (GENOIMMUNE THERAPEUTICS, published 2022).

B1: VTVGAVGVGK polypeptide (KRAS; SEQ ID NO: 4) (peptide)
peptide: VTVGAVGVGK
notes: Synthesized mutant KRAS neoantigen peptide; also called core polypeptide
B2: VSVGAVGVGK polypeptide (KRAS; SEQ ID NO: 6) (peptide)
peptide: VSVGAVGVGK
notes: as for B1
B3: VTVGADGVGK polypeptide (KRAS; SEQ ID NO: 1) (peptide)
peptide: VTVGADGVGK
notes: as for B1
B4: VTVGAAGVGK polypeptide (KRAS; SEQ ID NO: 5) (peptide)
peptide: VTVGAAGVGK
notes: as for B1
B5: VTGAVGVGK polypeptide (KRAS; SEQ ID NO: 3) (peptide)
peptide: VTGAVGVGK
notes: Synthesized mutant KRAS neoantigen peptide, printed as a 9-mer; also called core polypeptide

For this experiment, the target named is T1, HLA-A*11:01 (MHC-I molecules on the surfaces of T2 cells) (human).
T1 construct: It only names the antibody against 'the corresponding HLA typing (HLA-A*11:01)'; also called HLA molecules
Description: T2 cell MHC-I stabilisation assay, flow cytometry with FITC anti-HLA-A*11:01 antibody. (Flow cytometry measures light scatter and fluorescence of single cells or particles in a stream.)
For the molecule B1, the “FI (fluorescence index)” value is 2.02.
For B2, the “FI (fluorescence index)” value is 2.42.
Under B3 stands 2.83; under B4, 2.12.
Turning to B5, the “FI (fluorescence index)” value came out at 2.37.
